Measured values reported in article PMC3871700, “Unusual N-Prenylation in Diazepinomicin Biosynthesis: The Farnesylation of a Benzodiazepine Substrate Is Catalyzed by a New Member of the ABBA Prenyltransferase Superfamily” (PLoS ONE, 2013).

B1: DzmP (Micromonospora sp. RV115) (protein)
chain: MSGTPEVAELYSTIEESARQLDVPCSRDRVWPVLSAYGDAFAHPEAVVAFRVATALRHAGELDCRFRTHPDDRDPYASAIARGLTPRTDHPIGGLLAEVHRRCPVESHGIDFGVVGGFKKIYAAFAPDELQVASVLAGIPAMPRSLAANAGFFTRHGLDDRVGVLGFDYPARTVNVYFNDVPRECFEPETIRSTLRRTGMAEPSEQMLRLGAGAFGLYVTLGWDSPEIERICYAAATTDLTTLPVPVEPEIEKFVKSVPYGGGDRKFVYGVALTPKGEYYKLESHYKWKPGAVNFI
notes: His8-tagged DzmP (296 amino acids)
B2: Ssrg_00986 (Streptomyces griseoflavus Tu4000) (protein)
chain: MSGTSEADEICSAVTETAGRLGIAFSRDKVWPILSAYGDAFAHAMPLAFRMATGPQHAGDVDCRFITHPKDRNPYPLAVSKGLTPKTSHPVGTLLSEIEERFPIDGYGIDFGVVNGFTKVYAGFAPQDLQNASKLVEIPAMPRSLAGNFDFFVRHGLDDKVAFVAVDYLHRTVNVYFNDVPAACFESDGIRRMLRDLGLPGPSDRMLGIGGQAFGLYITLNWDSPAIERFCFGVTTTDLSSLPVSIEPQLEKFAHCVPYGGADRKFVYGVAAAPEGEYYKLETHYKWNPGTVAFI
notes: His8-tagged Ssrg_00986 (295 amino acids)

Tests used:
Test in all cases: purified protein
purified protein [1] = substrate: O=C1Nc2ccccc2Nc2ccccc21; assay type: biochemical, Micromonospora sp. RV115; settings: FPP as co-substrate; Mg2+ stimulates but is not required
purified protein [2] = substrate: Oc1ccc2c(O)cccc2c1; assay type: biochemical, Micromonospora sp. RV115; settings: FPP as co-substrate; Mg2+ stimulates but is not required
purified protein [3] = substrate: CC(C)=CCC/C(C)=C/COP(=O)(O)OP(=O)(O)O; settings: […],6-DHN as co-substrate; Mg2+ stimulates but is not required
purified protein [4] = substrate: CC(C)=CCC/C(C)=C/CC/C(C)=C/CO[P@@](=O)(O)OP(=O)(O)O; settings: […],6-DHN as co-substrate; Mg2+ stimulates but is not required
purified protein [5] = substrate: Oc1ccc2c(O)cccc2c1; assay type: biochemical, Streptomyces griseoflavus; settings: FPP as co-substrate; Mg2+ stimulates but is not required

Protein | Km (purified protein [1]) [µM] | K0.5 (purified protein [2]) [µM] | Km (purified protein [3]) [µM] | Km (purified protein [4]) [µM] | K0.5 (purified protein [5]) [µM]
B1 | 133 ± 30 | 18 ± 1 | 4.9 ± 0.9 | 20 | –
B2 | – | – | 45 | 45 | 96 ± 11
